Assay results taken from patent publication US20210079080A1 (Hoffmann-La Roche, published 2021).
Each block holds one binder with its values, some of them ahead of it.

How the values were obtained:
[1] = target: T1, VEGF-121-His (inhouse production) (human, UniProt P15692 207-395); test: SPR (Biacore), hVEGF-A121 captured by anti-His antibody, Fab injected, 25° C
T1 construct: His-tagged human VEGF-A121 used in the ELISAs and (captured by an anti-His antibody) in SPR; also called hVEGF-A121; his VEGF; not shown: His tag
T1 sequence: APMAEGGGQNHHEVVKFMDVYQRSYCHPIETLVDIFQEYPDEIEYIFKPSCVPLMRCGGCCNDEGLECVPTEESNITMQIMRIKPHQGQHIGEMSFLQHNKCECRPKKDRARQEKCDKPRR
Procedure: (§1) The surface was regenerated by injecting 10 mM Glycine pH 1.5 for 60s. […] Rate constants were calculated using the Langmuir 1:1 binding model within the Biacore® Evaluation software.
(§2) The affinity of the antibodies was determined by SPR using the same methods as described in Example 2. All Fab fragments of antibodies of the invention as listed in table 1 and table 5 were tested.

[2] = target: T1, VEGF-121-His (inhouse production); test: inhibition ELISA: antibody titrated against 0.7 nM VEGF-121-His; blocked partner plate-bound biotinylated VEGF-R2; anti-His POD readout
[3] = target: T1, VEGF-121-His (inhouse production); test: SPR (Biacore), hVEGF-A121 captured by anti-His antibody, Fab injected, 37° C
Procedure: as §1, §2

[4] = target: T1, VEGF-121-His (inhouse production); test: inhibition ELISA: antibody titrated against 0.7 nM VEGF-121-His; blocked partner plate-bound biotinylated VEGF-R1; anti-His POD readout
[5] = target: T1, VEGF-121-His (inhouse production); test: SPR (Biacore), hVEGF-A121 captured by anti-His antibody, Fab injected, 37° C; remark: listed apart in the source
Procedure: as §1
(§3) The affinity of the antibodies was determined by SPR using the same methods as described in Example 2. All Fab fragments as listed in table 1 and table 2 were tested.

[6] = target: T1, VEGF-121-His (inhouse production); test: SPR (Biacore), hVEGF-A121 captured by anti-His antibody, Fab injected, 25° C; remark: listed apart in the source
Procedure: as §1, §3

[7] = target: T1, VEGF-121-His (inhouse production); test: inhibition ELISA: antibody titrated against 0.7 nM VEGF-121-His; blocked partner plate-bound biotinylated VEGF-R2; anti-His POD readout; remark: listed apart in the source
Procedure: (§4) Plates were incubated for 1 h at room temperature. […] Plates were incubated for 1 h at room temperature. […] After washing 3 times with 90 μl/well PB ST-buffer, 25 μl/well detection antibody (anti His POD, Bethyl, #A190-114P, 1:12000) in 1×OSEP was added. After incubation for 1 h at room temperature plates were washed 3 times with 90 μl PBST-buffer. 25 μl TMB (Roche, #11 835 033 001) was added to all wells simultaneously. After 10 min incubation at room temperature, signals were detected at 370 nm/492 nm on a Tecan Safire 2 Reader.

[8] = target: T1, VEGF-121-His (inhouse production); test: as above; remark: listed apart in the source
Procedure: as §4

[9] = target: T1, VEGF-121-His (inhouse production); test: Biacore, Fab stressed 4 w/37° C./pH 7.4
Procedure: (§5) Antibody samples were formulated in 20 mM His/HisCl, 140 mM NaCl, pH 6.0, and were split into three aliquots: one aliquot was re-buffered into PBS, respectively, and two aliquots were kept in the original formulation. The PBS aliquot and one His/HisCl aliquot were incubated for 2 weeks (2 w) at 40° C. (His/NaCl) or 37° C. (PBS) in 1 mg/ml, the PBS sample was incubated further for total 4 weeks (4 w). The third control aliquot sample was stored at −80° C.

[10] = target: T2, human VEGF-A121 (human, UniProt P15692 207-395); test: cell-based or functional assay
T2 sequence: T1 sequence

[11] = target: T1, VEGF-121-His (inhouse production); test: Biacore, Fab stressed 2 w/40° C./pH 6.0
Procedure: as §5

[12] = target: T1, VEGF-121-His (inhouse production); test: inhibition ELISA: antibody titrated against 0.4 nM VEGF-121-His; blocked partner plate-bound biotinylated VEGF-R2; anti-His POD readout
[13] = target: T1, VEGF-121-His (inhouse production); test: direct ELISA on plate-coated VEGF-121-His
Procedure: After washing 3 times with 90 μl/well PBST-buffer (bidest water, 10×PBS Roche #11666789001+0.1% Tween® 20) blocking buffer (bidest water, 10×PBS Roche #11666789001+2% Bovine Serum Albumin Fraction V, fatty acid free, Roche, #10735078001+0.05% Tween® 20) was added 90 μl/well and incubated for 1 h at room temperature. […] After incubation for 1 h at room temperature, plates were again washed 3 times with 90 μl/well PBST-buffer. […] After washing 3 times with 90 μl A PBST-buffer, 25 μl TMB (Roche, #11 835 033 001) was added to each well. After 3 min incubation at RT, signals were detected at 370 nm/492 nm on a Tecan Safire 2 Reader.

[14] = target: T1, VEGF-121-His (inhouse production); test: Biacore, Fab stressed 2 w/37° C./pH 7.4
Procedure: as §5

Kd [1]: 0.052 nM
IC50 (read off the curve) [2]: ~0.7 nM
Kd [3]: 0.109 nM
IC50 (read off the curve) [4]: ~0.9 nM
B1: HF2-5 Fab fragment (Fab, V domains shown)
VH: EVQLVESGGGLVQPGGSLRLSCAASGFMIRSHGMQWVRQAPGKGLEYVAGISSDGSWARHSAAVEGRFTISRDDSKNTAYLQMNSLRAEDTAVYYCARDFSTGYGADSIDAWGQGTLVTVSS
VL: DIQMTQSPSSLSASVGDRVTITCSGGSDSAYGYGWYQQKPGKAPKTLIYWDDKRPSGVPSRFSGSRSGTDFTLTISSLQPEDFATYYCGAWEYSGGVGIFGQGTKVEIKR
notes: Prior art antibody disclosed in EP3006465

Kd [5]: 0.099 nM
Kd [6]: 0.134 nM
IC50 (read off the curve) [7]: ~10 ng/mL
IC50 (read off the curve) [8]: 1 to 2 nM
VEGF-binding activity after stress (relative active concentration, normalized to unstressed aliquot) [9]: 101
Kd [1]: 0.143 nM
IC50 in reporter gene assay (HEK293-NFAT-RE-Luc2P/KDR cells, luminescence, 25 ng/ml VEGF-A121) [10]: 0.59 nM
Kd [3]: 0.11 nM
VEGF-binding activity after stress (relative active concentration, normalized to unstressed aliquot) [11]: 101
IC50 (read off the curve) [12]: ~0.2 nM
EC50 (read off the curve) [13]: ~0.2 nM
VEGF-binding activity after stress (relative active concentration, normalized to unstressed aliquot) [14]: 102
B2: VEGF-0089 Fab fragment (Fab, V domains shown)
VH: EVQLVESGGGLVQPGGSLRLSCAASGFTFTNYAMTWVRQAPGKGLEWVSSIGNGGGIYTYYADSVKGRFTISRDNSKNTLYLQMNSLRAEDTAVYYCAKGDNLFDSWGPGTLVTVSS
VL: DIQMTQSPASLSASVGDRVTITCRASQSIYSSLNWYQQKPGKAPKLLIYASTLQSGVPSRFSGSASGTDFTLTISSLQPEDVATYYCQQYQNFPRTFGQGTKLEIKR
notes: also called antibody VEGF-0089
